Data reported in patent US20070253958A1 (Bristol-Myers Squibb, published 2007).
One block for each molecule: values may come before it.

Assays:
FcγRI (CD64), on cells [1] = target: T1, FcγRI (CD64), on cells (UniProt P12314 16-374, limits assumed); assay: cell-based or functional assay
T1 construct: whole, on cells

CD20 = target: T2, CD20 (human, UniProt P11836); assay: flow cytometry on CD20-expressing cells, mean fluorescence intensity; concentration not given
T2 construct: full length, on cells; also called CD20 on cells; Raji cells expressing CD20
T2 sequence (membrane protein on cells, looked up): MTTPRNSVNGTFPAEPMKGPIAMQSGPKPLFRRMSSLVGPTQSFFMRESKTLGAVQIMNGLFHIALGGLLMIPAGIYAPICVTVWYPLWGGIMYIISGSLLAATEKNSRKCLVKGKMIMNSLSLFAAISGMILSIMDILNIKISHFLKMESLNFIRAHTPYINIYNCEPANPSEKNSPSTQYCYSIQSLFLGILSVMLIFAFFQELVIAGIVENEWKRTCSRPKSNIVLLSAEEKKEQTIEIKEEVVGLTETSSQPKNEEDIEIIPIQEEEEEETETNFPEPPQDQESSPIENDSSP

[2] = target: T3, FcγRIIIa (CD16), on cells (UniProt P08637 17-254, limits assumed); assay: flow cytometry on CD16A-expressing cells, mean fluorescence intensity; concentration not given
T3 construct: whole, on cells; also called CD16A
T3 sequence (P08637 17-254 limits assumed): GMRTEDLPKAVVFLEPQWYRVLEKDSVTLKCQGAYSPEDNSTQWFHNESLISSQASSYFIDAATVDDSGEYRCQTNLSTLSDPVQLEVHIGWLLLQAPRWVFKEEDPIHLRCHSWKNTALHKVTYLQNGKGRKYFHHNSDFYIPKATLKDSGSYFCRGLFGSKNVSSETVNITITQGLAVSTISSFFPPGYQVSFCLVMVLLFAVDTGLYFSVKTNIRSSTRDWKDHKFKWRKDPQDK

[3] = target: T4, FcγRIIa-R131 (CD32, arginine at position 131), on cells (human, UniProt P12318 34-317); assay: flow cytometry on transfected cells, mean fluorescence intensity; antibody concentration not given
T4 construct: whole, on cells; A database entry may carry H at that site, so the arginine must be set by hand; also called FcγRIIa-R131 allotype; IIA1.6 FcγRIIa-R131 transfectants
T4 sequence (looked up): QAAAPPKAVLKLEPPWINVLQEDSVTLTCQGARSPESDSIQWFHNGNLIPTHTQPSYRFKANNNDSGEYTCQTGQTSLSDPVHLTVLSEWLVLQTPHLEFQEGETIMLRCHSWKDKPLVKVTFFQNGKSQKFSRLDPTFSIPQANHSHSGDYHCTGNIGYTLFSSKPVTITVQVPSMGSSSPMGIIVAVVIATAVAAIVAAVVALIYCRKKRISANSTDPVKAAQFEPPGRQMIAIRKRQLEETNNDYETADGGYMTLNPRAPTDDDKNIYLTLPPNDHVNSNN

[4] = target: T5, FcαR (CD89), on transfected IIA1.6 cells (UniProt P24071 22-287, limits assumed); assay: flow cytometry on CD89-transfected cells, mean fluorescence intensity; concentration not given
T5 construct: whole, on cells; also called Fcα receptor; FcαRI
T5 sequence (P24071 22-287 limits assumed): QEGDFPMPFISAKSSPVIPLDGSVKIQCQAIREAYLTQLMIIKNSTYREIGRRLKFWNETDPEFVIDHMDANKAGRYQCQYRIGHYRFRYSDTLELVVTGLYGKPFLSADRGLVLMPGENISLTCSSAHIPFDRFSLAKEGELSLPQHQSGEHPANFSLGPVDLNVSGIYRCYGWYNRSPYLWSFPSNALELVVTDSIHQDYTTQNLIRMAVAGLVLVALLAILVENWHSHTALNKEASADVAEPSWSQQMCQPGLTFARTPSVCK

FcγRI (CD64), on cells [5] = target: T1, FcγRI (CD64), on cells; assay: flow cytometry on CD64-expressing cells, mean fluorescence intensity; concentration not given

T1 sequence (P12314 16-374 limits assumed): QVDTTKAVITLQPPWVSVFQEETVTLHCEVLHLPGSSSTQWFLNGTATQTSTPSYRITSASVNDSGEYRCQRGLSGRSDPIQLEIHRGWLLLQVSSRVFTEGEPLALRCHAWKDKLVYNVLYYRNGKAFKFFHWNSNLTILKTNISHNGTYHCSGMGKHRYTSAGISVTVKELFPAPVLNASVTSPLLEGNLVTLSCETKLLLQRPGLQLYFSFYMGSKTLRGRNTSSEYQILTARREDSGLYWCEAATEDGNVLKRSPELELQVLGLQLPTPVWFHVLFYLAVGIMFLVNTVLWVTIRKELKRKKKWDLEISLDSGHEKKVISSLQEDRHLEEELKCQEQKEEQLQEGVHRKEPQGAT

reduction of FcγRI membrane expression (FcγRI (CD64), on cells [1]): 60%
Molecule: humanized CD64 mAb H22 (antibody)

binding result (CD20): no binding | binding result [2]: no binding | binding result [3]: binds | binding result [4]: no binding | binding result (FcγRI (CD64), on cells [5]): no binding
B1: human monoclonal antibody MDE-8 (whole IgG) (antibody, V domains shown)
VH: QVHLVESGGGVVQPGRSLRLSCAASGFTFSSYGMHWVRQAPGKGLEWVAVIWYDGSNYYYTDSVKGRFTISRDNSKNTLYLQMNSLRAEDTAVYYCARDLGAAASDYWGQGTLVTVSS
VL: AIQLTQSPSSLSASVGDRVTITCRASQGINSALAWYQQKPGKAPKLLIYDASSLESGVPSRFSGSGSGTDFTLTISSLQPEDFATYYCQQFNSYPHTFGQGTKLEIK
notes: Hybridoma-derived fully human IgG, kappa from HuMab HCo7 mice; a human IgG1 mAb served as its isotype control; also called HuMAb MDE-8; MDE-8 IgG
